Measurements reported in paper PMC7211019 (2020).
Each block holds one binder with its values, some of them ahead of it. Ends that are not written are not given here.

Legend:
Par3 PDZ2 = Par3 PDZ2 (Rattus norvegicus); experiment: FP
Par3 PDZ3 [1] = target: T1, Par3 PDZ3 (rat, UniProt Q9Z340 582-685); experiment: FP
Par3 PDZ3 G600,602 A = Par3 PDZ3 G600,602 A (rat, UniProt Q9Z340 582-685, G600,602 A (G600A) | G600,602 A (G602A)); experiment: FP
Par3 PDZ1 = Par3 PDZ1 (rat, UniProt Q9Z340 1-1337); experiment: FP
Par3 PDZ3 [2] = target: T1, Par3 PDZ3; experiment: FP; 0% 1,6-hexanediol
Par3 PDZ3 [3] = target: T1, Par3 PDZ3; experiment: FP; 5% 1,6-hexanediol
Par3 PDZ3 [4] = target: T1, Par3 PDZ3; experiment: FP; 10% 1,6-hexanediol
Par3 PDZ3 [5] = target: T1, Par3 PDZ3; experiment: FP; 25% 1,6-hexanediol

T1 sequence (Q9Z340 582-685): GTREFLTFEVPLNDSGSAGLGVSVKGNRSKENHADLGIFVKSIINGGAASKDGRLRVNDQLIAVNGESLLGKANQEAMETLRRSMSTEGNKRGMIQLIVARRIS
Chain of Par3 PDZ2 (Rattus norvegicus) (chain, as listed by the source): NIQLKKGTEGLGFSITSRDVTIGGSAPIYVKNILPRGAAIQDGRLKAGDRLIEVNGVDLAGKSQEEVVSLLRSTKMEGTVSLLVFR
Chain of Par3 PDZ1 (Q9Z340 whole entry): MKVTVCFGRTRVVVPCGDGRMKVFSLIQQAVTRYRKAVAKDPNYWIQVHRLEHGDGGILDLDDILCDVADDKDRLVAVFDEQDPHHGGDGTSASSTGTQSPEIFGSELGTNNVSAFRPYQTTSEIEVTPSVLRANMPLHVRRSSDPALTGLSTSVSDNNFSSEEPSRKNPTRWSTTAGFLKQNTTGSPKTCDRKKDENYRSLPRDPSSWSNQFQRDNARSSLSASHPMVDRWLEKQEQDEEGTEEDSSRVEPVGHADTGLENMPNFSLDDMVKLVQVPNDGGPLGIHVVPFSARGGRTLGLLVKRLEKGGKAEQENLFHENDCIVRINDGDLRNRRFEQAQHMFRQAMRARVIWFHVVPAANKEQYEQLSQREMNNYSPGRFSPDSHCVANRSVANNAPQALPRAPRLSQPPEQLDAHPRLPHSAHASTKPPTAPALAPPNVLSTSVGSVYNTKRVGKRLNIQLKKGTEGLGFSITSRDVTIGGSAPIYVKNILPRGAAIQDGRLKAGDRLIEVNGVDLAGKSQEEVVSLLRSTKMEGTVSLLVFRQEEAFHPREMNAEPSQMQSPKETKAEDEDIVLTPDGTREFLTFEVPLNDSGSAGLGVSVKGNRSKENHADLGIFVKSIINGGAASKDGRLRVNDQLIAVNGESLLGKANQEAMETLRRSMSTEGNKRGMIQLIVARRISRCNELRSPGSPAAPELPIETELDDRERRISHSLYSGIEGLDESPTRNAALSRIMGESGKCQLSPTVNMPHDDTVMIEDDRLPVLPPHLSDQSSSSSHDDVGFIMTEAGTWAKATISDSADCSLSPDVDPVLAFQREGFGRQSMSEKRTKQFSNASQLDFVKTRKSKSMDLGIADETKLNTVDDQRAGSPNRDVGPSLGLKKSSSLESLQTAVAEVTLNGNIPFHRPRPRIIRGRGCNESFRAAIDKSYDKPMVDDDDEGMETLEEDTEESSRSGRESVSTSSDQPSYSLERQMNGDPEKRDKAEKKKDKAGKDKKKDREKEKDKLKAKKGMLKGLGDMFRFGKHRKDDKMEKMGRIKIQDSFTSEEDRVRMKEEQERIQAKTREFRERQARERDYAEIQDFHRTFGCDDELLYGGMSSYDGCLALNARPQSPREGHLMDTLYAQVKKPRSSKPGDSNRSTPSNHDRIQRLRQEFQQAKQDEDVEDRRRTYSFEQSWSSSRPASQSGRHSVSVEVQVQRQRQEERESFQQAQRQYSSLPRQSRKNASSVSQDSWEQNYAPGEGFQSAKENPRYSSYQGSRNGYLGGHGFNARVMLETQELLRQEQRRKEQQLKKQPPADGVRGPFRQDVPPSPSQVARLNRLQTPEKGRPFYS
Chain of Par3 PDZ3 G600,602 A (Q9Z340 582-685 G600A/G602A): as the sequence (Q9Z340 582-685) above, with G19A, G21A counted along it

- Kd (Par3 PDZ2): 161 µM
- Kd (Par3 PDZ3 [1]): 1100 nM
- Kd (Par3 PDZ3 G600,602 A): 20 µM
- Kd (Par3 PDZ1): 104 µM
- Kd (Par3 PDZ3 [2]): 1100 nM
- Kd (Par3 PDZ3 [3]): 4.9 µM
- Kd (Par3 PDZ3 [4]): 9.7 µM
- Kd (Par3 PDZ3 [5]): 22 µM
B1: FITC-labeled Par6β PBM peptide (peptide)
peptide: LEEDGTIITL
modifications: also: FITC label, position not given here

- Kd (Par3 PDZ3 [1]): 1300 nM
B2: FITC-labeled Par6γ PBM peptide (peptide)
peptide: VEEHGPAITL
modifications: also: FITC label, position not given here

- Kd (Par3 PDZ3 [1]): 172000 nM
B3: FITC-labeled Par6α PBM peptide (peptide)
peptide: MRGDVSGFSL
modifications: also: FITC label, position not given here
